These are literature values, as cited in article PMC10348426.

Data set [1] concerns the target ER ECD (Arabidopsis thaliana) (UniProt Q42371).
Data set [2] has as its target FER ECD (Arabidopsis thaliana) (UniProt Q9SCZ4). Put plainly: MST.
Data set [3] deals with ER ECD (Arabidopsis thaliana) (UniProt Q42371). The source holds these as a separate data set.

Like-named read-outs stand apart in the source and are kept apart here.

Chain of UniProt Q42371 (Q42371 25-580): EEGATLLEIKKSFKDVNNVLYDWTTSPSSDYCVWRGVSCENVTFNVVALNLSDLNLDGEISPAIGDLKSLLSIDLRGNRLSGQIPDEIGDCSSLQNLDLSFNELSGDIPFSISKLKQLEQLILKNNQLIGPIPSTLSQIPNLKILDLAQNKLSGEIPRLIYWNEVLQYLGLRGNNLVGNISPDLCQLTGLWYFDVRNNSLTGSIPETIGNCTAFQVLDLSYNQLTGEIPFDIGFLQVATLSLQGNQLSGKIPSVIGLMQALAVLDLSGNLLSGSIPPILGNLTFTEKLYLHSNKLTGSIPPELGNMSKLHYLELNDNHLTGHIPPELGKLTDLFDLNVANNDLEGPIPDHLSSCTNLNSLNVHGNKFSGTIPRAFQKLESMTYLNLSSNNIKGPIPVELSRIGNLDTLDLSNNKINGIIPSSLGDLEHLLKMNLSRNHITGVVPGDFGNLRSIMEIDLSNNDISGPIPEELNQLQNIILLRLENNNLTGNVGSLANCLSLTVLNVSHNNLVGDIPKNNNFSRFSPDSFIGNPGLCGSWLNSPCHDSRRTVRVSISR
Chain of UniProt Q9SCZ4 (Q9SCZ4 28-447): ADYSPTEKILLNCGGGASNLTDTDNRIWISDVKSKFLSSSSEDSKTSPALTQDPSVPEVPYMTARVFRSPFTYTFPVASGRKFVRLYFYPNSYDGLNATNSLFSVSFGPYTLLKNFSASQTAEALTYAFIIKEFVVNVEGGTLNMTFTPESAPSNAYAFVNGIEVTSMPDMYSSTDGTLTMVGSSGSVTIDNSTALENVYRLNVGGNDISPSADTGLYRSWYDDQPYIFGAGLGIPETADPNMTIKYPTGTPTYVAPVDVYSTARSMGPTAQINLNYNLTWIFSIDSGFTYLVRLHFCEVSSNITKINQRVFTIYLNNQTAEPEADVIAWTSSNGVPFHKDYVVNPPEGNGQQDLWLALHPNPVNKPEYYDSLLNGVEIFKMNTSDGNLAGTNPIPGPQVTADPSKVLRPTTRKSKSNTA

With EPF2 (from UniProt Q8LC53), in data set [1], the Kd is 59 nM.
As to RALF33 (from UniProt Q8L9P8), the Kd in data set [2] was 160 nM.
As to STOMAGEN (from UniProt Q9SV72), the Kd in data set [3] is 44 nM.
